Test results: the supplement of paper PMC11246515
± gives the standard deviation of the averaged measurements.

Test: total protein half-life in vivo (active degradation + dilution); higher = more stable protein
[1] = wild type E. coli NCM3722, growth: C-lim chemostat, doubling time 6 h
[2] = wild type E. coli NCM3722, growth: C-lim chemostat, doubling time 12 h
[3] = E. coli NCM3722 delta-clpP delta-lon delta-hslV, growth: N-lim chemostat, doubling time 6 h
[4] = E. coli NCM3722 delta-hslV, growth: N-lim chemostat, doubling time 6 h
[5] = E. coli NCM3722 delta-lon, growth: N-lim chemostat, doubling time 6 h
[6] = E. coli NCM3722 delta-smpB, growth: N-lim chemostat, doubling time 6 h
[7] = wild type E. coli NCM3722, growth: C-lim chemostat, doubling time 3 h
[8] = wild type E. coli NCM3722, growth: N-lim chemostat, doubling time 6 h
[9] = wild type E. coli NCM3722, growth: N-lim chemostat, doubling time 12 h
[10] = wild type E. coli NCM3722, growth: P-lim chemostat, doubling time 6 h
[11] = wild type E. coli NCM3722, growth: P-lim chemostat, doubling time 12 h
[12] = E. coli NCM3722 delta-clpP, growth: N-lim chemostat, doubling time 6 h

Sequence | total protein half-life in vivo [1] | total protein half-life in vivo [2] | total protein half-life in vivo [3] | total protein half-life in vivo [4] | total protein half-life in vivo [5] | total protein half-life in vivo [6] | total protein half-life in vivo [7] | total protein half-life in vivo [8] | total protein half-life in vivo [9] | total protein half-life in vivo [10] | total protein half-life in vivo [11] | total protein half-life in vivo [12]
MRTLLAILLFPLLVQAAGEGMWQASSVGITLNHRGESMSSAPLSTRQPASGLMTLVAWRYQLIGPTPSGLRVRLCSQSRCVELEGQSGTTVAFSGIAAAEPLRFIWEVPGGGRLIPPLKVQRNEVIVNYR | 4.74 h | 8.78 ± 2.5 h |  |  |  |  |  |  |  |  |  | 
MRTRHLVGLISGVLILSVLLPVGLSIWLAHQQVETSFIEELDTYSSRVAIRANKVATQGKDALQELERWQGAACSEAHLMEMRRVSYSYRYIQEVAYIDNNVPQCSSLEHESPPDTFPEPGKISKDGYRVWLTSHNDLGIIRYMVAMGTAHYVVMIDPASFIDVIPYSSWQIDAAIIGNAHNVVITSSDEIAQGIITRLQKTPGEHIENNGIIYDILPLPEMNISIITWASTKMLQKGWHRQVFIWLPLGLVIGLLAAMFVLRILRRIQSPHHRLQDAIENRDICVHYQPIVSLANGKIVGAEALARWPQTDGSWLSPDSFIPLAQQTGLSEPLTLLIIRSVFEDMGDWLRQHPQQHISINLESPVLTSEKIPQLLRDMINHYQVNPRQIALELTEREFADPKTSAPIISRYREAGHEIYLDDFGTGYSSLSYLQDLDVDILKIDKSFVDALEYKNVTPHIIEMAKTLKLKMVAEGIETSKQEEWLRQHGVHYGQGWLYSKALPKEDFLRWAEQHL |  |  | 6.97 ± 0.34 h | 5.64 ± 0.36 h | 5.57 ± 1.2 h | 6.12 ± 0.67 h | 3.21 ± 0.33 h | 6 ± 0.23 h | 12.2 ± 0.44 h | 6.32 ± 0.94 h | 12.6 ± 0.13 h | 
MRVLVTGGSGYIGSHTCVQLLQNGHDVIILDNLCNSKRSVLPVIERLGGKHPTFVEGDIRNEALMTEILHDHAIDTVIHFAGLKAVGESVQKPLEYYDNNVNGTLRLISAMRAANVKNFIFSSSATVYGDQPKIPYVESFPTGTPQSPYGKSKLMVEQILTDLQKAQPDWSIALLRYFNPVGAHPSGDMGEDPQGIPNNLMPYIAQVAVGRRDSLAIFGNDYPTEDGTGVRDYIHVMDLADGHVVAMEKLANKPGVHIYNLGAGVGNSVLDVVNAFSKACGKPVNYHFAPRREGDLPAYWADASKADRELNWRVTRTLDEMAQDTWHWQSRHPQGYPD | 5.62 ± 0.26 h | 11.6 ± 0.67 h | 6.39 ± 1.9 h | 4.54 ± 0.37 h | 5 ± 0.24 h | 5.61 ± 1.2 h | 3.11 ± 0.27 h | 4.53 ± 0.95 h | 13.7 ± 1.8 h | 5.91 ± 0.51 h | 11.7 ± 0.53 h | 4.762 ± 0.027 h
MRVNLLITMIIFALIWPVTALRAAVSKTTWADAPAREFVFVENNSDDNFFVTPGGALDPRLTGANRWTGLKYTGSGTIYQQSLGYIDNGYNTGLYTNWKFDMWLENSPVSSPLTGLRCINWYAGCNMTTSLILPQTTDASGFYGATVTSGGAKWMHGMLSDAFYQYMQQMPVGSSFTMTINACQTSVNYDASSGARCKDQASGNWYVRNVTHTKAANLRLINTHSLAEVFINSDGVPTLGEGNADCRTQTIGSRSGLSCKMVNYTLQTNGLSNTSIHIFPAIANSSLASAVGAYDMQFSLNGSSWKPVSNTAYYYTFNEMKSADSIYVFFSSNFFKQMVNLGISDINTKDLFNFRFQNTTSPESGWYEFSTSNTLIIKPRDFSISIISDEYTQTPSREGYVGSGESALDFGYIVTTSGKTAADEVLIKVTGPAQVIGGRSYCVFSSDDGKAKVPFPATLSFITRNGATKTYDAGCDDSWRDMTDALWLTTPWTDISGEVGQMDKTTVKFSIPMDNAISLRTVDDNGWFGEVSASGEIHVQATWRNIN | 5.13 ± 0.19 h | 10.2 ± 0.39 h | 5.48 h | 4.45 ± 0.53 h |  | 5.38 ± 0.3 h | 2.41 h | 5.187 ± 0.038 h | 10.3 h | 6.55 h | 10.9 ± 2.3 h | 4.16 ± 0.31 h
MRVSRSLTIKQMAMVAAVVLVFVFIFCTVLLFHLVQQNRYNTATQLESIARSVREPLSSAILKGDIPEAEAILASIKPAGVVSRADVVLPNQFQALRKSFIPERPVPVMVTRLFELPVQISLGVYSLERPANPQPIAYLVLQADSFRMYKFVMSTLSTLVTIYLLLSLILTVAISWCINRLILHPLRNIARELNAIPAKELVGHQLALPRLHQDDEIGMLVRSYNLNQQLLQRHYEEQNENAMRFPVSDLPNKALLMEMLEQVVARKQTTALMIITCETLRDTAGVLKEAQREILLLTLVEKLKSVLSPRMILAQISGYDFAVIANGVQEPWHAITLGQQVLTIMSERLPIERIQLRPHCSIGVAMFYGDLTAEQLYSRAISAAFTARHKGKNQIQFFDPQQMEAAQKRLTEESDILNALENHQFAIWLQPQVEMTSGKLVSAEVLLRIQQPDGSWDLPDGLIDRIECCGLMVTVGHWVLEESCRLLAAWQERGIMLPLSVNLSALQLMHPNMVADMLELLTRYRIQPGTLILEVTESRRIDDPHAAVAILRPLRNAGVRVALDDFGMGYAGLRQLQHMKSLPIDVLKIDKMFVEGLPGDSSMIAAIIMLAQSLNLQMIAEGVETEAQRDWLAKAGVGIAQGFLFARPLPIEIFEESYLEEK | 5.7 ± 1.1 h | 13 ± 0.22 h | 6.54 ± 0.19 h | 6.2 ± 0.23 h | 5.77 ± 0.32 h | 6.1 ± 0.082 h | 2.998 ± 0.0049 h | 6.054 ± 0.008 h | 12.3 ± 0.63 h | 6.161 ± 0.035 h | 12.5 ± 0.55 h | 6.31 ± 0.11 h
MRVVILGSGVVGVASAWYLNQAGHEVTVIDREPGAALETSAANAGQISPGYAAPWAAPGVPLKAIKWMFQRHAPLAVRLDGTQFQLKWMWQMLRNCDTSHYMENKGRMVRLAEYSRDCLKALRAETNIQYEGRQGGTLQLFRTEQQYENATRDIAVLEDAGVPYQLLESSRLAEVEPALAEVAHKLTGGLQLPNDETGDCQLFTQNLARMAEQAGVKFRFNTPVDQLLCDGEQIYGVKCGDEVIKADAYVMAFGSYSTAMLKGIVDIPVYPLKGYSLTIPIAQEDGAPVSTILDETYKIAITRFDNRIRVGGMAEIVGFNTELLQPRRETLEMVVRDLYPRGGHVEQATFWTGLRPMTPDGTPVVGRTRFKNLWLNTGHGTLGWTMACGSGQLLSDLLSGRTPAIPYEDLSVARYSRGFTPSRPGHLHGAHS [P0A6J5] | 1.65 ± 0.11 h | 2.68 ± 0.58 h | 2.86 ± 0.088 h | 2.16 ± 0.24 h | 2.06 h | 1.95 ± 0.12 h | 1.01 ± 0.16 h | 2.04 ± 0.17 h | 3.35 ± 0.27 h | 2.27 ± 0.23 h | 4.77 ± 0.97 h | 1.88 ± 0.14 h
